From patent US20150315292A1 (VANDERBILT UNIVERSITY, published 2015)

Key:
[1] = biological target: T1, human fXII with the kringle domain replaced with the corresponding domain from HGFA (human, UniProt P00748 20-216; Q04756 286-367; P00748 296-615, limits assumed); test: Western blot after SDS-PAGE
T1 construct: Expressed in human fibroblasts (HEK293) and blotted from conditioned medium; also called fXII/HGFA kringle domain chimera; KNG
T1 sequence (looked up): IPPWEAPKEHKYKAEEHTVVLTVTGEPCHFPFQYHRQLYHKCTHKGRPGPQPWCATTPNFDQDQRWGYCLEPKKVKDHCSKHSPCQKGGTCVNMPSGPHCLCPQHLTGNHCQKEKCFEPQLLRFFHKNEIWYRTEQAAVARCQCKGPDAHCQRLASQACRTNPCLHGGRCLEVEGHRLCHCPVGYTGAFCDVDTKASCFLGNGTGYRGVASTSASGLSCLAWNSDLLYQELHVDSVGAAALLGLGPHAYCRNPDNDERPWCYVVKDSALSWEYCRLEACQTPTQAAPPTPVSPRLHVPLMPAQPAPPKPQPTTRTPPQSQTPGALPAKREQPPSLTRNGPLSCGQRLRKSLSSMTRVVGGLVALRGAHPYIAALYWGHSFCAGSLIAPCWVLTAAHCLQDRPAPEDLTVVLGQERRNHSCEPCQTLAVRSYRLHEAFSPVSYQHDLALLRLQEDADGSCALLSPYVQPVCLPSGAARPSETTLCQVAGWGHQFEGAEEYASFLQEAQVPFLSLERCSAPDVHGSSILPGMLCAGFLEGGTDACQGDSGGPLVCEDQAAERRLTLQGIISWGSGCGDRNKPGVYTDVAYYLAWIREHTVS
Text: (§1) AB043 and AB042 both recognize baboon and human fXII, indicating they can be used for studies in baboon thrombosis models. […] Chimeras in which individual fXII domains were replaced with those of HGFA were expressed in human fibroblasts.

[2] = biological target: T2, human fXII with the EGF2 domain replaced with the corresponding domain from HGFA (human, UniProt P00748 20-173; Q04756 241-279; P00748 211-615, limits assumed); test: Western blot after SDS-PAGE
T2 construct: Expressed in human fibroblasts (HEK293) and blotted from conditioned medium; also called fXII/HGFA chimera for the EGF2 domain
T2 sequence (looked up): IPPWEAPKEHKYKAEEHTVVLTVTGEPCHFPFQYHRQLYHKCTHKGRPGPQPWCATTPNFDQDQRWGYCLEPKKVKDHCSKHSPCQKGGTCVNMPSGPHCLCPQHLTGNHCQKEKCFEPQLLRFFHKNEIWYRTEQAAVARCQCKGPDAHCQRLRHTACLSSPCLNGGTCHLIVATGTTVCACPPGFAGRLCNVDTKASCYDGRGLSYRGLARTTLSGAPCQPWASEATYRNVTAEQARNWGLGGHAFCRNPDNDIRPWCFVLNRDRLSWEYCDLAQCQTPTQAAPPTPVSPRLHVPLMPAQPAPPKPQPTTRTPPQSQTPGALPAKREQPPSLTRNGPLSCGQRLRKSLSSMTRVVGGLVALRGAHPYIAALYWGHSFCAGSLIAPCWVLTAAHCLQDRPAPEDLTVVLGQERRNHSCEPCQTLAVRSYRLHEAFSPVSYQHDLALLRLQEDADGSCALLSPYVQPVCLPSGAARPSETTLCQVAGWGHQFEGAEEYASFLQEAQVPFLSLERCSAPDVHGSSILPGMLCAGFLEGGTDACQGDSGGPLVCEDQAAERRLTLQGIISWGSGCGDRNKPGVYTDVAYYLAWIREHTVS
Text: as §1

binding result [1]: no binding
binding result [2]: no binding
B1: monoclonal anti-human fXII antibody AB042 (antibody, V domains shown)
VH: EVQLQQSGAELVRPGASVKLSCTASGFNIKDDYMHWVKQRPEQGLEWIGWIDPENGDTEYASKFQGKATITSDTSSNTAYLQLSSLTSEDTAVYYCTENYYGSSFFAYWGQGTLVTVSA
VL: DIVMTQATPSVPVTPGESVSISCRSSKSLLHSNGITYLYWFLQRPGQSPQRLIYYMSNLASGVPDRFSGRGSGTDFTLRISRVEAEDVGVYYCMQSLEYPYTFGGGTKLEIKR
notes: Mouse hybridoma IgG raised in fXII knockout mice immunized with human fXII
